In a protein production outcome set (Wang et al. 2014):

Test: label from the status in PepcDB records
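Note: failed if final PepcDB status was selected cloned or expressed and not failed if soluble or beyond.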

Sequence	protein production
MANNARIEHTSSEGHEGDATCVAYFDGQLFSGGADGKIRIWSPELQLLATVNAHEAYIYCMAINQHGKVYSSSCDGQVHFMLPPYGDESVQELFRCDDAIQAMYCDGSVLYTGDDKGVVTTWTNDRMLFKYSLVEEVKSLAGEQNLIYTVRDLDVVVSQVAEGKSGKYSNKAVIPGKSPLHLLGPMVDGKRSYLAFPDRSGMGLQLVNNLSQQQYSKIWHLPDCHELIINALCGDETYLYSGGYDKKVKGWTDLEAGKPKALGEVEVGSCVNSICCGANDTVYIASSDGFIRSAKFV	failed
MANQTVERQSWSNRLAYIMTVAGATVGFGATWRFPYLVGENGGGAYVFLFCIAMIVIGIPMILVENVIGRRMKVNAIDAFSGQANGKKIASGWKILGYMGLLGAFGILSYYMVLGGWVLNYIGSLISGNLDLSSPITVETTTAYYQNSIQNSPITILCYAALFVLINFFILTKGIVDGIERSVKYLMPILFIFLLVMVVRNVTLPGATDGISFYLMPDFSKITPKLFVFVLGQVFFALSLGFGVLITLSSYLDKNENLIKTATITGIMNTFIAVLAGFMIFPSLFSFGVAPNSGPTLVFQSLPIVFSNMWGGTIFAIIFFSLLIVAALTTSLTIYEVIITALQEKTKISRKTAIGITLSSTFLIGNIPSVLGDNIWKDVTIMGKSIFDVFDYISGNILFILTALGSAIFVGYVLKDEAKAELGANKTLTTIWFNYVRFVIPIIIIVIFFNSL	failed
MANSIDLIGYVHQPVQFDSTLDGKFWAGTVISHEPSSDSKSESDSSSNFWIPVLFEGDLAHTANSYLKKNDRVHITGQILGDVIQSGANSDQAHVQLFKSFHGSFSHQVMVRD	failed
MANTSSDWAGAPQNASADGEFVRDTNYIDDRIVADVPAGSEPIAQEDGTFHWPVEAGRYRLVAARACPWAHRTVITRRLLGLENVISLGLTGPTHDVRSWTFDLDPNHLDPVLQIPRLQDAYFNRFPDYPRGITVPALVEESSKKVVTNDYPSITIDFNLEWKQFHREGAPNLYPAELREEMAPVMKRIFTEVNNGVYRTGFAGSQEAHNEAYKRLWVALDWLEDRLSTRRYLMGDHITEADIRLYPTLVRFDAVYHGHFKCGRNKITEMPNLWGYLRDLFQTPGFGDTTDFTEIKQHYYITHAEINPTRIVPVGPDLSGFATPHGREKLGGSPFAEGVTLPGPIPAGEEVKNPEPFQK	not failed
MANVVILGGNGYLGRNITKVWLEIDPKLEFYIVSRSGQNKLVDKRIHNIKVDVTNEKDVAKKRPDTFDYIIDCIGVPEKDPEKFKQINDLPAETMLALARKQKDPVMGFISGRLGPKTFIDGKAQILKELQDSSIKVASVSPNVVYGNGRKDSMTKMVPFLKFMDLFSAKMNPDDVVKDLINQMIKLHNS	failed
MANYPKELPAQTQSRQPGIESEMNPSPVYEYEDYKGADKLKGKVALITGGDSGIGRAVSVAYAKEGADIAIVYKDEHEDAEETKKRVEQEGVKCLLIAGDVGEEEFCNEAVEKTVKELGGLDILVNNAGEQHPKESIKDITSEQLHRTFKTNFYSQFYLTKKAIDYLKPGSAIINTTSINPYVGNPTLIDYTATKGAINAFTRTMAQALVKDGIRVNAVAPGPIWTPLIPATFPEETVAQFGQDTPMGRPGQPVEHVGCYVLLASD	not failed
MAPACTTVHRRRAPLAAVLMLSLLPVLSPHADAAQVPWHSRTFKYVADNKDLKEVLRDLSASQSIATWISPEVTGTLSGKFETSPQKFLDDLAATYGFVWYYDGAVLRIWGANESKSATLSLGTASTKSLRDALARMRLDDPRFPVRYDETAHVAVVSGPPGYVDTVSAIAKQVEQGARQRDATEVQVFQLHYAQAADHTTRIGGQDVQIPGMASLLRSMYGARGAPVAAIPGPGANFGRVQPIGGGSSNTFGNAAQGQGGGASGILGLPSSWFGGASSSDRVPVSPPLPGSGTAATAGSPASVWPELSKGRRDESTPIDAGGGAELASDAPVIEADPRTNTILIRDRPERMQSYGTLIQQLDNRPKLLQIDATIIEIRDGAMQDLGVDWRFHSQHTDIQTGNGSGGQLGFNGALSGAATDGATTPAGGTLTAVLGDAGRYLMTRVSALETTNKAKIVSSPQVATLDNVEAVMDHKQQAFVRVSGYASADLYNLSAGVSLRVLPSVVPGSPNGQMRLDVRIEDGQLGSNTVDGIPVITSSEITTQAFVNEGQSLLIAGYAYDADETDLNAVPGLSKIPLLGNLFKHRQKSGSRMQRLFLLTPHVVSP	failed
MAPDQQVPATALGKSSRISLDGRRSERSVILADGSMHSLTLLHPGVYTLSSEVAETIRVLSGMAYYHAEGANDVQELHAGDSMVIPANQSYRLEVMEPLDYLLSS	not failed
MAPFSSSSAEIKIARTAPFSSSAENKGNRQINGASSSASSCDAENAKSGGSRQLGKAAYMEGKHVDALQIFMWMHRKEMSFSTSEVALFVDIIGNTIGIAAAHSYLKKVDPNCDQMHNRTENWPAFVSLVKLETKLLKENGIVHATRPPK	failed
MAPGAAQELQAKLAEIGAPIQGNREELVERLQSYTRQTGIVLNRPVLRGEDGDKAAPPPMSAQ	failed
MAPHPEAAALLARSHRLGADPRNTNYAGGNASAKGTATDPVTGGDVELMWVKGSGGDLGTLTEAGLAVLRLDRLHALKGVYPGVEREDEMVAAFDYCLHGKGGAAPSIDTAMHGLVDAAHVDHLHPDSGIALACAADGEKLTAECFGDSVAWVPWRRPGFQLGLDIAAVKEANPQTIGCVLGGHGITAWGATAEECERNSLHIIRTAEAFLAERGKAEPFGPLEHHHHHH	failed
MAPKAQKSPKGQRKGKKKTKQQSLVSEEEEPMNMESMDVAPGSSPDLDISMASDGHPEIYPLVLTAKTQEIFNCRIDEDMTDEQTYKLIKKEDILADLQNRAAVSDFHPVKKIVLEYPGEELLLVYDKDFKYGLNFYLIGTEEGKENFLKAPEIPEEQEDLKEHVPEDVYIYKPPVSKPWISLGSEKEIEEESVQESKKRVTYMISRKRSQFGAPVTFRDQNASSVKDAYIECTSYPDKSYTLTQVEKDIGLQVIAEVKDTSTQTRWAFPRNATTQYYPREFSEEEKNVLVESKSLAEFFSTVSTSVEIALQQNEIMNTFTDDWRSLAEEESTFGDKTDTHLKEYQSFTDLHNTMEKMITCVSWHPTIYGLIVVSVAVRLSYEERVQNSSRLLLQPSLILFWSFSDPIHPQLMLESPDDIFCFEFCPSDPNIIAGGCINGQIILWDITAHAERIENIKTGGSRSKKATLKPMFLLEPDSNKEIMYVRHCAVSSIENGHRKVITDIHWLPDSFEINRMGSVFENRSGINCQLITCSADCTICFWDIRPQKPTVTSAATATTTSTTNTNPQQPPAEKKKEESIEIPFDVPSTFLHLDLSWKPLSRIKLSKGETSLDHCPTKLSLGEDPALCKIQDKMLSQMKLLKAAEINPYQNLEGGMANMLKPIEDFRTKFFVGTEEGEVIYTDWKMERDSETGRLMAKKPVNLYTVHDGAVHTVQRSPFFNDIILTVGGWNVAIWKEEVLTGPLLQTCCAPKRYTAGHWSLTRPGVFYIGREDGYVDIWDLLEKTHEPAQSQSICITMITYIKPWTFSCRPPFLPQADRSMMVSLLMSMRHSAKPSGDQNPVSSVNYYFEREVKHLEYVQQRKEIREEEKKAMAMEMIKKKAKTYHRSKEQMEAELKLEYESYLELEQSVLFALGLGKVSEKMSYLDLH	failed
MAPKKIGAGKGDSSILAKISNYDIVSQGRRAACDAVYVSKKLLKSTGKAAWIAGTTFLILAVPLILELEQDHRLGEIDFEQASLLGTPPVGAML	failed
MAPMIPHPPAVLAHRLSEGQRLATPLMRALMRATGTQVDAAIARTIAELGAHCGADRTRVYRIEAGQVLDCTHEWCRSGISEIRPEMQRIPLGTLDRWMPILRRGEPVDVPDLHGLPEDDPAKQQMARHGIRALVLMPLTAGTALTGVVGLSLFRARRPVDPAEMALLHSIAEAMGAALARRDAERRAVAARSAARDVARNLERLARVTELMTNLVIVTDVEQQIVWVNRAFERQTGHSLEAIRGRNFAEVVRGPGTDPGVCAAVAEAIRTCSSCEGETINYTAAGQPYWIRFNAHPLSDADGRYAGHASVETVITDRKVLERELATRNAFLTAVLQTSVSAIVALNAEGGIVYANDEARRLLVLQPHRGGLRMEAVLETLDGRPLPEADMPSALVRATGAPLHDLRYAIRRPDGQFGILSINAAPLPQAADDARIVISVTDITHAEASAERLRRQAAEDPLTGLANRRALADAVETRLTEAAPFALVMLDLDNFKAVNDLQRHDTGDAVLRIAADRLRAVAGADCLVARMGGDEFMVLAPGTDAASAPRLAEALRAAISAPIEVGRQPVHLAASAGIALHPEHGTSMALLMTGADIALHAAKRAGRNRSVLLSQAQFAAEARRSAITQALAADVEADLRLVFQPQFRACGAFDGAEALLRWTDPRLGEIGPAEFIPIAEEAGLIQRIDAHVAVLAARQLGLWARRGWRHRLAVNASAQTFARAGFAEELLQHLAEEDVCPQQLVVELTDTSLATLSSVADHNIATLRRAGVGIAIDDFGTGYASLSYLHRIEATEIKIDRGFVAGLETAERRDSKPLIQAILSLAHALGLAVTAEGVETERQRSWLSAEGCDRLQGYLLGRPLPVEAFEAAFVTPAAVPG	failed
MAPPAQKGNLRKRSGKTSTAVNSAINENVRKLVRSLSEPGTSQKKLRQMEDTALKIIANQRRTWAPTTTDMEVKRNLDDLAERFRAEGMASFGESIKDLAIRYLAMDENQQQFNPNPGWQMLELLFRIADRPVQKIRLNREFMEQRRLSIINSMEEAERQAQIEEQAKLEAAKNTSETEVDWAALLSEDFLDPPEDDSSDSLSDWSEESDCDSTTTLKPDENIGVSRSLLEMARVYEQAMMAVVPTGSVNKTYMPPEQSVIRSYDFRIMKPTVLSLNNLKGSHLRRSKLLQLPPPQPPRPFTQYWQSGNTDTLFRKIHSHWWCQDVHLNALPSSAKPLDNFAVSYVQFLNHNARGLLALPVPKTITEPCLLREILFMFVRPASCCFFEFDKATRRITVRDNVSICTVTASTMQNFLLFNVVPALEDMMELRHIIDTHTLHFHGVKTTYTVEFFAYGLRDLVQPICQLLIAYEDRVNKDPAKNTLIRFTIEFREHFSQLRLLRELAEDVILDKGPAHIRSAYLLSRLYKHTLLQVPHQKLATALLFISLKRYCIIIDGWWRRAALEDHLREFIVEFCYEEDANTRSHVRKRNMGMEDDLLLVEIFNKLQSCPLYQLLLEHALESGETQDLLCSVNTLSEMLTSNNEIQLPSLHDELFTQFFAQLKVYCGADNTDYEDEPEPDKDYEDLTVCNRQGIRNHELFAIFTQPLVEQRLERQRERLKSNPVLMANILKRLERSTCLQLKSELPEALREILRRRQWLANEYAIRAYCKETQVAEKMRFLRHTMLLEKYYLFVPYYNALFVRMEKNNSWALGSVLTSKLCAVLLPHYPQLAHYLHVKLISQINSNSIKVYEALEAIELDFERPMAMHQWYILTPAHMQDYNSVWRLMLKVKWAVWKLENMQFLRRARFNPCAPLDLIGLTIRRLEIVRFWLIFLINNLHAHIMEAVSRQFELRIGECKNVRELRIMHDEHLAWLKTHCMLTDEFKAFRVALDQIFHLVYVLDMEWTTCASCMHDHDALCLDFTISDDGIDDSETQRRSLEYLALNQVAEIELTYIRCHQMLADILNTLVHQNDHGFLSALEETINSSVPH	failed
MAPRDIRPGAEYGDIIEEAIVTCKVFLIVFSETSQISRWVRSELNIGFSSNKPIIPFRIDPTDLKGSMKLMLNDKHWLNAYPNPEEKFSELAAVILDLLQHPAVDTISPPGFQPASNVASADGSNAGAQGLFGKLLNQLFVKRRVKVTSDHAAEIFLNGERKGKLDAYETGNYSVSEDFYQLEVYSCEYGKKVKCEYSGSFSNSSTVIISVDMATAEKQYLMKAKNITSGQINDLGIIFLDEGKFEDAQECFLKAASMGEAAAAYNLGMMYHFGKGVEIDYDVAREYYEEAVKSDYPLALNNLGSIYYNGHGVRKDIAKSFPYFCRAAERGVESAQFTVATMLFYGQGVAVDKAKAKKWFQKAAAQGCKDSQNYLNSWVDDLEHHHHHH	not failed
MAQFLEKATSALSEAKESVTSTAESVTASLTDAEKTVNQTARSTLTDAETTVAASVETVKTEAAAAPDKASGVSTQAKDAVDKAFSRGIEGAKSLLQTFEAKSSDISSKLVGGVTNLVSGASSSTVANRDLPVSTDNQPLLASGEKTPWWKNCCGVLDLFKKDT	failed
